According to patent US20080279957A1, “Immunomodulating compositions from bile” (Lorus Therapeutics Inc., priority 2000, published 2008):

B1: monocyte-CSF (protein, UniProt P09603 33-554, looked up)
Macrophage colony-stimulating …: EEVSEYCSHMIGSGHLQSLQRLIDSQMETSCQITFEFVDQEQLKDPVCYLKKAFLLVQDIMEDTMRFRDNTPNAIAIVQLQELSLRLKSCFTKDYEEHDKACVRTFYETPLQLLEKVKNVFNETKNLLDKDWNIFSKNCNNSFAECSSQDVVTKPDCNCLYPKAIPSSDPASVSPHQPLAPSMAPVAGLTWEDSEGTEGSSLLPGEQPLHTVDPGSAKQRPPRSTCQSFEPPETPVVKDSTIGGSPQPRPSVGAFNPGMEDILDSAMGTNWVPEEASGEASEIPVPQGTELSPSRPGGGSMQTEPARPSNFLSASSPLPASAKGQQPADVTGTALPRVGPVRPTGQDWNHTPQKTDHPSALLRDPPEPGSPRISSLRPQGLSNPSTLSAQPQLSRSHSSGSVLPLGELEGRRSTRDRRSPAEPEGGPASEGAARPLPRFNSVPLTDTGHERQSEGSFSPQLQESVFHLLVPSVILVLLAVGGLLFYRWRRRSHQEPQRADSPLEQPEGSPLTQDDRQVELPV
B2: gamma interferon (protein, UniProt P01579 24-161, looked up)
Interferon gamma: QDPYVKEAENLKKYFNAGHSDVADNGTLFLGILKNWKEESDRKIMQSQIVSFYFKLFKNFKDDQSIQKSVETIKEDMNVKFFNSNKKKRDDFEKLTNYSVTDLNVQRKAIHELIQVMAELSPAAKTGKRKRSQMLFRG

Assays:
[1] = system: tumor cells (monocyte cytotoxicity assay); assay: Effect of indomethacin on tumoricidal function of cancer patients' monocytes (Example 15); conditions: for regulation of tumoricidal function by an indomethacin-sensitive function: indomethacin up to 5 ng/ml
[2] = system: mouse hybridoma cell line HYB #6-1; assay: Antiproliferative bioassay in mouse hybridoma cells (Example 4); type: cell-based; conditions: procedure of Example 4
Protocol: The bioassay is carried out as follows. […] Hybridoma cell samples are specifically quantitated. Using a hemocytometer the calls in a 100 μl sample are counted. The cells are concentrated by centrifugation and then cell concentration is adjusted to 1,000 cells/ml (twice the final desired concentration) by addition of appropriate volumes of fresh media. […] After 96 hours, each well is sampled at 100 μl×3 and placed in a 96 well plate. (A blank of 100 μl of medium without cells is included.) Cell density is determined using a PROMEGA CellTiter 96 kit. Cell concentration is measured by reading absorbance at 595 nm (650 nm reference) and recorded by ELISA plate reader. For each assay, a standard curve of cell concentration is prepared. Cultured cells in the log phase of growth are sampled, counted, concentrated and resuspended in serial dilutions. Each dilution is sampled at 100 μl×3 and placed in a 96 well plate. The standard curve is constructed by plotting cell density versus “net” OD at 595 nm after subtraction of zero cell blanks and OD at 650 nm. Cell density of unknown samples is determined by interpolation.

lymphocytes = assay: Stimulation of lymphocyte DNA synthesis; type: cell-based, human; conditions: optimal stimulating concentration of PHA
Protocol: These indicators of immune function also can be modulated in cancer patients who are treated with different biological response modifying agents such as interferon or interleukin-2.
1) Stimulation of Lymphocyte DNA Synthesis: Comparison with an Optimal Stimulating Concentration of Phytohemagglutinin (PHA)

[3] = system: tumor cells (monocyte cytotoxicity assay); assay: Tumor cytotoxicity of peritoneal macrophages from patients with gynecological disease (Example 14); type: cell-based, human; conditions: Monocyte/Tumor Cell ratio 15/1; 7 patients (3 benign, 4 malignant); composition 1:10 of batch 222, gamma interferon 100 U/ml, interleukin-12 500 U/ml, monocyte-CSF 500 U/ml
Text: Immunother 32:55-61, 1990.

[4] = system: tumor cells (monocyte cytotoxicity assay); assay: Tumor cytotoxicity of peripheral blood monocytes from patients with gynecological disease (Example 14); conditions: Monocyte/Tumor Cell ratio 15/1; 7 patients (3 benign, 4 malignant); composition 1:10 of batch 222, gamma interferon 100 U/ml, interleukin-12 500 U/ml, monocyte-CSF 500 U/ml
Text: More particularly, the patient population consisted of 7 patients, 3 with benign disease and 4 with malignant disease (2 ovarian cancers, 1 endometrial cancer, and 1 cervical cancer). Samples were removed from patients at the time of surgical procedure.

Molecule	regulation of tumoricidal function by an indomethacin-sensitive function [1]	% Tumor Cytotoxicity (+/−S.E.) Peritoneal Macrophage [3] [%]	% Tumor Cytotoxicity (+/−S.E.) Peripheral Blood [4] [%]	other results
CCCCCCCCCCCCCC(=O)O[C@@H]1[C@@H](C)[C@@]2(O)[C@@H](C=C(CO)C[C@]3(O)C(=O)C(C)=C[C@@H]23)[C@@H]2C(C)(C)[C@]12OC(C)=O [Phorbol Ester (PNA)]	not regulated by an indomethacinsensitive function			
C[C@H](CCC(=O)NCCS(=O)(=O)O)[C@H]1CC[C@H]2[C@@H]3[C@H](O)C[C@@H]4C[C@H](O)CC[C@]4(C)[C@H]3C[C@H](O)[C@]12C [sample (1), taurocholic acid]				anti-proliferative activity, in words [2]: Neither sample (1) nor sample (2) had any detectable anti-proliferative effect
N.O [sample (2), NH3.H2O]				anti-proliferative activity, in words [2]: Neither sample (1) nor sample (2) had any detectable anti-proliferative effect
Phytohemagglutinin [PHA]				Stimulation of lymphocyte DNA synthesis (lymphocytes): 125,817 Counts per Minute
gamma interferon [IFN-γ]	regulated by an indomethacin-sensitive function			
granulocyte macrophage colony stimulating factor [GM-CSF]	regulated by an indomethacin-sensitive function			
interleukin-12 [IL-12]	not regulated by an indomethacinsensitive function	8.5 ± 2	26.0 ± 4	
B1	regulated by an indomethacin-sensitive function	7.0 ± 2	16.0 ± 2	% cytotoxicity ([1]; peripheral blood monocytes from cancer patients, activator alone or with indomethacin (up to 5 ng/ml) added simultaneously): 14.1 ± 3%
B2		9.5 ± 1	18.3 ± 2	
